# ± gives the standard deviation of the averaged measurements.
# B1: library; numbered along this chain (parent)
# chain: MNIQIGELAKRTACPVVTIRFYEQEGLLPPPGRSRGNFRLYGEEHVERLQFIRHCRSLDMPLSDVRTLLSYRKRPDQDCGEVNMLLDEHIRQVESRIGALLELKHHLVELREACSGARPAQSCGILQGLSDCVCDTRGTTAHPSD
# What was measured:
# [1] = variants of: B1; assay: sfGFP reporter fluorescence (15 h) (µM FITC); higher = higher leak; details: library round: Round 1; ligand: none
# Outline: (§1)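 Readout was endpoint sfGFP fluorescence, converted to µM FITC through standard curves. Reactions were 1 μL of BL21 Star (DE3) PANOx-SP extract with pPbrR-sfGFP reporter, 30 μg/mL GamS and linear PbrR templates normalized to 5 nM, containing 1 µM lead chloride, 30 µM zinc acetate or no metal. Incubation lasted 15 hr at 30 °C, with up to three biological replicates.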
# [2] = variants of: B1; assay: sfGFP reporter fluorescence (15 h) (µM FITC); higher = stronger transcriptional activation; details: library round: Round 1
# Outline: as §1
# [3] = variants of: B1; assay: sfGFP reporter fluorescence (15 h) (µM FITC); higher = higher leak; details: library round: Round 0; ligand: none
# Protocol: (§2)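 Cell-free (BL21 Star DE3 extract, PANOx-SP) biosensing: 1 µL Echo-assembled reactions with linear PbrR variant templates (5 nM) and pPbrR-sfGFP reporter, with 1 µM Pb (lead chloride), 30 µM Zn (zinc acetate) or no ligand; endpoint sfGFP fluorescence after 15 h at 30 °C, calibrated as µM FITC. Round 0 library (alanine scan, site saturation, combinatorial) of PbrR from Cupriavidus metallidurans; 2 biological replicates.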
# [4] = variants of: B1; assay: sfGFP reporter fluorescence (15 h) (µM FITC); higher = stronger transcriptional activation; details: library round: Round 0
# Protocol: as §2
Variant,sfGFP reporter fluorescence [1],sfGFP reporter fluorescence ([2]; ligand: 1 µM Pb),sfGFP reporter fluorescence ([2]; ligand: 30 µM Zn),sfGFP reporter fluorescence [3],sfGFP reporter fluorescence ([4]; ligand: 1 µM Pb),sfGFP reporter fluorescence ([4]; ligand: 30 µM Zn)
L100I,0.0611 ± 0.0014,0.0649 ± 0.0013,0.216 ± 0.019,,,
D131T D135Y,0.074 ± 0.0013,0.0933 ± 0.014,0.801 ± 0.026,,,
P61N I90L K104G,0.0641 ± 0.0019,0.0616 ± 0.0054,0.119 ± 0.012,,,
D131H P143Y,0.064 ± 0.0022,0.0797 ± 0.012,0.383 ± 0.0077,,,
I125L D131C,0.06 ± 0.0018,0.0617 ± 0.0015,0.0593 ± 0.0014,,,
D64T Q127G,0.0611 ± 0.004,0.0887 ± 0.0049,0.594 ± 0.062,,,
M60L P61N D64K K104T,0.137 ± 0.0056,0.446 ± 0.019,1.18 ± 0.11,,,
M60L P61N D64K L107C G128M,2.5 ± 0.028,2.54 ± 0.22,2.51 ± 0.45,,,
D64T K104T,0.207 ± 0.0096,0.472 ± 0.087,1.83 ± 0.16,,,
N83T V108L D131C,0.06218 ± 0.00042,0.0745 ± 0.0076,0.0858 ± 0.0057,,,
N83T L107E,0.0668 ± 0.00076,0.0635 ± 0.0022,0.0662 ± 0.0024,,,
N83T R111F,0.0639 ± 0.0014,0.0644 ± 0.004,0.085 ± 0.0026,,,
N83T V108L D131C P143T,0.06365 ± 0.00056,0.0753 ± 0.002,0.0975 ± 0.0026,,,
D131S C134V,0.072 ± 0.005,0.126 ± 0.0046,1.34 ± 0.045,,,
D64K N83T D131S,0.0698 ± 0.0016,0.29 ± 0.022,1.03 ± 0.022,,,
G128H D131C,0.0654 ± 0.0018,0.0887 ± 0.01,0.187 ± 0.02,,,
E94C K104V,0.0704 ± 0.0013,0.072 ± 0.0039,0.184 ± 0.002,,,
N83T D135P,0.0602 ± 0.0037,0.0771 ± 0.00092,0.106 ± 0.0033,,,
V16S P61N,0.074 ± 0.00097,0.114 ± 0.021,0.612 ± 0.11,,,
E109H D131C,0.0634 ± 0.0019,0.0764 ± 0.0062,0.159 ± 0.017,,,
N83T L107C C114R G128M,0.063 ± 0.0015,0.0605 ± 0.0029,0.06108 ± 0.00021,,,
R96G,0.0668 ± 0.0022,0.076 ± 0.004,0.195 ± 0.012,,,
R96S,0.0636 ± 0.0021,0.0924 ± 0.0049,0.328 ± 0.015,,,

Variant,sfGFP reporter fluorescence [1],sfGFP reporter fluorescence ([2]; ligand: 1 µM Pb),sfGFP reporter fluorescence ([2]; ligand: 30 µM Zn),sfGFP reporter fluorescence [3],sfGFP reporter fluorescence ([4]; ligand: 1 µM Pb),sfGFP reporter fluorescence ([4]; ligand: 30 µM Zn)
D131L D135A,0.0688 ± 0.0015,0.0969 ± 0.027,0.476 ± 0.055,,,
D131L D135S,0.0691 ± 0.0011,0.0943 ± 0.002,0.588 ± 0.05,,,
H105A I125A,0.0647 ± 0.0012,0.0639 ± 0.0042,0.0656 ± 0.0013,,,
D64K C114F,0.0621 ± 0.0032,0.0613 ± 0.0011,0.0596 ± 0.0016,,,
I90L D131C,0.0627 ± 0.00064,0.0647 ± 0.0038,0.122 ± 0.0066,,,
M84A I97G,0.05986 ± 0.00042,0.0617 ± 0.0011,0.218 ± 0.017,,,
M60L P61D D64K,0.237 ± 0.022,0.609 ± 0.14,1.82 ± 0.074,,,
N83T D131H,0.0632 ± 0.0011,0.0836 ± 0.0011,0.14 ± 0.012,,,
N83T D131C,0.0627 ± 0.0013,0.0738 ± 0.0019,0.0784 ± 0.0036,,,
N83T E109A P143Y,0.0646 ± 0.0022,0.0776 ± 0.0092,0.179 ± 0.017,,,
R39F V46C,0.065 ± 0.0013,0.0632 ± 0.0031,0.0655 ± 0.0018,,,
D64K N83S I90N,0.0679 ± 0.0014,0.223 ± 0.065,0.737 ± 0.02,,,
M84A G124A,0.0619,0.064 ± 0.0056,0.143 ± 0.0022,,,
H142C P143A,0.0676 ± 0.0022,0.0772 ± 0.0027,0.384 ± 0.03,,,
N83T E109L P143R,0.0641 ± 0.00073,0.0812 ± 0.0015,0.183 ± 0.0048,,,
D64K V108E,0.0746 ± 0.0013,0.165 ± 0.015,1.42 ± 0.1,,,
V108L C114L,0.05962 ± 0.00056,0.0571 ± 0.003,0.0589 ± 0.0018,,,
R111I C134P,0.0589 ± 0.0022,0.0683 ± 0.0031,0.228 ± 0.0041,,,
P15A P61L,0.0735 ± 0.0017,0.0722 ± 0.0038,0.0794 ± 0.002,,,
I97A K104V,0.0886 ± 0.0059,0.303 ± 0.071,1.11 ± 0.076,,,
L107E G128I,0.0629 ± 0.0025,0.0633 ± 0.0023,0.0621 ± 0.0022,,,
G128I D131S,0.0878 ± 0.004,0.253 ± 0.025,1.43 ± 0.2,,,
N83T D135A P143A,0.0625 ± 0.002,0.0748 ± 0.0033,0.162 ± 0.0078,,,

Variant,sfGFP reporter fluorescence [1],sfGFP reporter fluorescence ([2]; ligand: 1 µM Pb),sfGFP reporter fluorescence ([2]; ligand: 30 µM Zn),sfGFP reporter fluorescence [3],sfGFP reporter fluorescence ([4]; ligand: 1 µM Pb),sfGFP reporter fluorescence ([4]; ligand: 30 µM Zn)
V93A,,,,0.0585 ± 0.0013,0.0579 ± 0.0031,0.128 ± 0.0062
N83R L107H,0.0594 ± 0.00064,0.0632 ± 0.0012,0.0662 ± 0.0035,,,
E25V R111M,0.063 ± 0.0024,0.0654 ± 0.0053,0.152 ± 0.0061,,,
P61N D64T,0.345 ± 0.02,1.06 ± 0.11,3.56 ± 0.13,,,
I3G,,,,0.061 ± 0.0023,0.0755 ± 0.0047,0.1957 ± 0.001
D64T D135A,0.13 ± 0.0033,0.23 ± 0.0095,1.63 ± 0.1,,,
L107C D131A,0.73 ± 0.082,1.4 ± 0.048,2.23 ± 0.17,,,
P61L L62I,0.063 ± 0.00064,0.063 ± 0.0019,0.0771 ± 0.0011,,,
E94F K104V G128H,0.0634 ± 0.002,0.0647 ± 0.0031,0.0833 ± 0.0084,,,
R33C K104V,0.06255 ± 0.00056,0.0618 ± 0.0011,0.0646 ± 0.0015,,,
D87E D131C,0.0622 ± 0.0025,0.0742 ± 0.0072,0.134 ± 0.013,,,
M60L P61N,,,,0.25 ± 0.0062,1.01 ± 0.48,3.5 ± 0.044
L107I C114R,0.059 ± 0.0019,0.0512 ± 0.0044,0.0514 ± 0.00092,,,
L28V C134T,0.06536 ± 0.00042,0.0943 ± 0.0028,0.646 ± 0.022,,,
N83I I97H,0.0618 ± 0.0012,0.0654 ± 0.0032,0.0625 ± 0.003,,,
P61N D131A P143W,0.0886 ± 0.0011,0.134 ± 0.023,0.59 ± 0.051,,,
L107C G128I P143A,0.52 ± 0.062,1.09 ± 0.32,2.25 ± 0.092,,,
Q121A D135A,0.0661 ± 0.0031,0.0888 ± 0.0096,0.743 ± 0.11,,,
N83I H89C,0.0654 ± 0.0027,0.0645 ± 0.0035,0.0687 ± 0.0029,,,
L62I K104V,0.072 ± 0.0011,0.109 ± 0.0031,0.417 ± 0.022,,,
Q127A D135P,0.0621 ± 0.0012,0.0781 ± 0.0053,0.244 ± 0.021,,,
D135A P143M,0.0655 ± 0.002,0.07977 ± 0.00056,0.405 ± 0.014,,,
D135A P143W,0.0683 ± 0.0014,0.0809 ± 0.0017,0.372 ± 0.0075,,,

Variant,sfGFP reporter fluorescence [1],sfGFP reporter fluorescence ([2]; ligand: 1 µM Pb),sfGFP reporter fluorescence ([2]; ligand: 30 µM Zn),sfGFP reporter fluorescence [3],sfGFP reporter fluorescence ([4]; ligand: 1 µM Pb),sfGFP reporter fluorescence ([4]; ligand: 30 µM Zn)
D135A P143A,0.0645 ± 0.0011,0.0761 ± 0.0051,0.423 ± 0.016,,,
N83I D131S,0.063 ± 0.0013,0.0862 ± 0.0031,0.0633 ± 0.0013,,,
K104R D135A,0.0652 ± 0.0026,0.0866 ± 0.004,0.368 ± 0.043,,,
K104V L107G G128M,0.0645 ± 0.0022,0.0955 ± 0.013,0.29 ± 0.028,,,
R111I G128I,0.0666 ± 0.0015,0.127 ± 0.0043,0.695 ± 0.036,,,
V16N L58A,0.0597 ± 0.0018,0.0608 ± 0.00073,0.0591 ± 0.0024,,,
M60L D64K G128T D131C,0.754 ± 0.023,1.8 ± 0.19,2.25 ± 0.44,,,
L107C G128I D135S,2.64 ± 0.069,3.9 ± 0.36,4.376 ± 0.041,,,
L107I P143R,0.06365 ± 0.00021,0.0775 ± 0.0077,0.473 ± 0.02,,,
C55V K104V,0.0621 ± 0.00092,0.0644 ± 0.0017,0.107 ± 0.0044,,,
D131Y D135P,0.0677 ± 0.0011,0.0826 ± 0.0037,0.272 ± 0.021,,,
D131Y D135A,0.0654 ± 0.0021,0.1 ± 0.0045,1.61 ± 0.27,,,
C55L K104V,0.0651 ± 0.0015,0.0729 ± 0.004,0.121 ± 0.0031,,,
P61N V108M R111C,0.0735 ± 0.00085,0.0925 ± 0.013,0.237 ± 0.0083,,,
P61N R111L,0.0644 ± 0.0014,0.0861 ± 0.0066,0.265 ± 0.025,,,
N83T R96A,0.0645 ± 0.00037,0.0756 ± 0.0031,0.0938 ± 0.0026,,,
G36K P61N,0.0721 ± 0.0043,0.112 ± 0.0096,0.588 ± 0.075,,,
D64A R111L,0.061 ± 0.0013,0.105 ± 0.01,0.743 ± 0.022,,,
D64K E112F,0.06988 ± 0.00056,0.145 ± 0.0047,0.802 ± 0.055,,,
D131F D135A,0.0667 ± 0.0016,0.071 ± 0.0022,0.345 ± 0.018,,,

# — the supplement of paper PMC12783771
